Patent publication US20150376674

Biological target: tetranectin-apolipoprotein A-I fusion polypeptide precursor polypeptide

B1: IgA-protease protein from Neisseria gonorrhoeae (protein)
chain: ALVRDDVDYQIFRDFAENKGKFFVGATDLSVKNKRGQNIGNALSNVPMIDFSVADVNKRIATVVDPQYAVSVKHAKAEVHTFYYGQYNGHNDVADKENEYRVVEQNNYEPHKAWGASNLGRLEDYNMARFNKFVTEVAPIAPTDAGGGLDTYKDKNRFSSFVRIGAGRQLVYEKGVYHQEGNEKGYDLRDLSQAYRYAIAGTPYKDINIDQTMNTEGLIGFGNHNKQYSAEELKQALSQDALTNYGVLGDSGSPLFAFDKQKNQWVFLGTYDYWAGYGKKSWQEWNIYKKEFADKIKQHDNAGTVKGNGEHHWKTTGTNSHIGSTAVRLANNEGDANNGQNVTFEDNGTLVLNQNINQGAGGLFFKGDYTVKGANNDITWLGAGIDVADGKKVVWQVKNPNGDRLAKIGKGTLEINGTGVNQGQLKVGDGTVILNQKADADKKVQAFSQVGIVSGRGTLVLNSSNQINPDNLYFGFRGGRLDANGNDLTFEHIRNVDEGARIVNHNTDHASTITLTGKSLITNPNSLSVHSIQNDYDEDDYSYYYRPRRPIPQGKDLYYKNYRYYALKSGGRLNAPMPENGVAENNDWIFMGYTQEEARKNAMNHKNNRRIGDFGGFFDEENGKGHNGALNLNFNGKSAQKRFLLTGGANLNGKISVTQGNVLLSGRPTPHARDFVNKSSARKDAHFSKNNEVVFEDDWINRTFKAAEIAVNQSASFSSGRNVSDITANITATDNAKVNLGYKNGDEVCVRSDYTGYVTCNTGNLSDKALNSFDATRINGNVNLNQNAALVLGKAALWGKIQGQGNSRVSLNQHSKWHLTGDSQVHNLSLADSHIHLNNASDAQSANKYHTIKINHLSGNGHFHYLTDLAKNLGDKVLVKESASGHYQLHVQNKTGEPNQEGLDLFDASSVQDRSRLFVSLANHYVDLGALRYTIKTENGITRLYNPYAGNGRPVKPAP
Cleavage activity: Cleavage activity was in the expected range.
